Laboratory results published in PMC12439769, “Case of Nisin Oral Ingestion and its LC-MS/MS Detection in Human Urine Over Time: A Case Report” (Archives of clinical and medical case reports, 2025).
No end group written: not given here.

How the values were obtained:
[1] = Western blotting of nisin in urine samples after oral ingestion; type: in vivo, human
Procedure: (§1) Nisin ZP (Handary S.A; Brussels, Belgium) was ingested by a healthy volunteer. […] Sterile urine was then collected at 4 pm (Sample 1) and 8 pm (Sample 2) on the first day of ingestion, and at 6 am (Sample 3), 8 am (Sample 4), 3:30 pm (Sample 5), and 9 pm (Sample 6) the next day. Urine samples were frozen at −80°C immediately upon collection (Table 1).
The urine samples were filtered using a 10 kDa MWCO Amicon® ultra centrifugal filter (Cat No: UFC201024, Millipore). The filtrate was used to analyze nisin, while the top retained fraction was used to check for potential nisin-binding proteins that might bind to and shift nisin to a higher molecular weight.
Western blot analyses were performed on the filtrate and top fractions from the urine samples to detect nisin and nisin binding proteins, respectively. Samples were normalized by equal protein concentration (125 μg) and then mixed with 4X Laemmli sample buffer (Cat. No. 1610747, Bio-Rad) containing β-ME (3:1). The proteins were resolved by 16% Tricine SDS-PAGE (Invitrogen, Cat No. EC6695) then transferred to Immobilon-P membranes. The blots were probed with a custom polyclonal affinity-purified rabbit nisin antibody (proprietary to Kapila lab). The antibody against nisin was produced by co-immunizing rabbits with four short nisin peptide sequences (Pacific Immunology, Ramona, CA). Blots were incubated with horseradish peroxidase-conjugated anti-rabbit antibody (SC-2004, Santa Cruz Biotechnology) and then developed with the ECL-plus detection system (Thermo Fisher Scientific).

[2] = LC-MS/MS (PRM) detection of nisin in human urine after oral ingestion; type: in vivo
Procedure: as §1
Six urine samples, including both standard and nisin-spiked samples, were thawed/prepared then centrifuged at 4000×g to pellet large solute materials/proteins. The supernatant from each sample was then filtered using a 10 kDa MWCO Amicon® Ultra Centrifugal Filter to further remove larger protein molecules. The filtered urine was lyophilized under stringent conditions (−50 °C and 0.1 Torr) for 48 hours to ensure complete dryness. The lyophilized cake was resuspended in 0.1% Trifluoroacetic Acid (TFA) for sample homogenization. A subsequent centrifugation step at 12000×g for 5 minutes allowed for the separation of any remaining particulate matter, with the supernatant being carefully transferred into a clean tube. The supernatant underwent desalting using C18 Stage Tips, which were prepared by equilibration in 1% TFA and 50% Acetonitrile (ACN), followed by a washing solution of 5% ACN and 0.1% TFA, and an elution in 40% ACN with 0.1% TFA. The peptides eluted were vacuum dried and then resuspended in 5% Formic Acid (FA).
Nisin peptide abundance was measured using liquid chromatography coupled to mass spectrometry (LC-MS/MS). After reconstitution in formic acid, the samples were fractionated online by C18 reversed phase chromatography using a Dionex U3000 HPLC to deliver an increasing gradient of acetonitrile. Peptides were eluted and electrosprayed directly in a Thermofisher Fusion Lumos mass spectrometer. Data were acquired using a parallel reaction monitoring strategy in which the +5 precursor ion of full-length nisin was analyzed by MS/MS [51]. The precursor and fragment ion masses for +5 charge state of nisin utilized for Parallel Reaction Monitoring are shown in Table 2. Extracted ion chromatograms were generated for each fragment ion using the Skyline software package. The area under the curve for each fragment ion was summed to calculate an estimate of nisin abundance.

[3] = Tolerability of oral ingestion of nisin; type: in vivo, human; conditions: 20 grams in total, two doses of 10 grams/150 ml of water at noon and 6 pm; one healthy person
Procedure: as §1

[4] = cited from earlier work
Procedure: (§2) Nisin mediates its action in part by interactions with phospholipid bilayers on cellular membranes. Prior pharmacokinetic and pharmacodynamic information indicate that nisin can be absorbed via epithelial tissues. Nisin can be absorbed through the vaginal epithelium into the circulation following intravaginal administration in rabbits. Maximum levels of nisin were detected in blood samples after 1 h of treatment. […] Further, Dreyer et al. reported the migration of nisin a ...

[5] = system: gastrointestinal epithelial and vascular endothelial cells; conditions: in vitro; ref 35 (Dreyer et al.); cited from earlier work
Procedure: as §2

[6] = oral ingestion, encapsulated nisin and nisin powder groups, at 24, 48 and 72 hours; mass spectrometry; cited from earlier work
Source text: Like other reports of nisin detection with LC-MS/MS, this project employed similar methods to successfully detect nisin and its fragments in urine samples [44–49]. The ongoing clinical trial (ClinicalTrials.gov; NCT06097468) of nisin in oral cancer patients and studies with larger sample sizes will be helpful to furthe ...

[7] = rabbits, intravaginal administration

## Nisin ZP: Natural bacteriocin made by Lactococcus lactis, food preservative; Nisin ZP from Handary S.A, Brussels, Belgium (ITSISLCTPGCKTGALMGCNMKTATCNCSIHVSK; also: lantibiotic nisin-Z: thioether rings and dehydro residues not placed; UniProt P29559 24-57, looked up)
[1]; <10 kDa filtrate, urine 8–33 h after first ingestion, anti-nisin rabbit polyclonal antibody
  Nisin detection in urine samples 2 through 6 by immunoblotting: did not detect
[1]; <10 kDa filtrate, urine 4 h after first ingestion, anti-nisin rabbit polyclonal antibody, 16% Tricine SDS-PAGE
  Nisin detection at approximately 3.3 kDa in urine sample 1 by immunoblotting: detected
[1]; >10 kDa retained fraction, urine 4 h after first ingestion, suggests a potential nisin-binding protein
  High molecular weight nisin-positive band at approximately 40 kDa in urine sample 1: nisin-positive band
[2]; after first oral 10 g dose, LC-MS/MS, earliest sample collected at 4 h, n = 1 subject
  Time of maximal nisin levels detected in urine: 4 h
[2]; one healthy person, oral 2 x 10 g/150 ml water at noon and 6 pm, urine 4, 8, 18, 20 h after first ingestion, 10 kDa MWCO filtrate, lyophilized, C18 desalted, PRM of +5 precursor, summed fragment AUC
  Nisin detection in urine samples 1–4 by LC-MS/MS: detected
[2]; oral 10 g/150 ml at noon, second 10 g at 6 pm, LC-MS/MS, n = 1 subject, no urine collected before 4 h
  Time window of nisin detection in urine after the first ingestion: 4 to 20 h
[2]; same subject and regimen, urine 27.5 and 33 h after first ingestion (21.5 and 27 h after second), PRM of +5 precursor
  Nisin detection in urine samples 5–6 by LC-MS/MS: not
[2]; second oral 10 g/150 ml dose at 6 pm, LC-MS/MS, n = 1 subject
  Time of nisin detection in urine after the second ingestion: up to 14 hours
[3]
  Tolerability of oral ingestion: well tolerated without any adverse events
[4]
  Stability in the harsh conditions of the gastric environment: partially stable
[4]; [7]
  Time at which blood levels declined to baseline: 12 h
  Time of maximum levels of nisin in blood samples: 1 h
[5]
  Migration across gastrointestinal epithelial and vascular endothelial cells: migration of nisin across gastrointestinal epithelial and vascular endothelial cells
[6]
  Integrity of nisin passing through the porcine gastrointestinal tract: remains intact
